{"source": "patent US9889179B2", "about": "“FGF-18 compound dosing regimen” (MERCK PATENT GMBH, priority 2014, dated 2018)", "key": {"[1]": {"system": "medial meniscal tear in the right knee joint", "assay_type": "in vivo, Male Lewis rats", "conditions": "for swelling scores versus vehicle controls: days 24-29, 31, 36-43", "protocol": "Male Lewis rats underwent surgery to induce a medial meniscal tear in the right knee joint. Animals were dosed i.a. with FGF-18 (10 μg/joint) on days 21, 28, and 35 and dosed orally with diclofenac (either 1 mg/kg or 3 mg/kg) or vehicle on days 21-23, 28-30, and 35-37, then terminated on day 42 or day 63. Serum was collected and evaluated for alpha 2 macroglobulin (α2MG) levels on days −3, 21, 42, and 63. α2MG is an inflammation serum biomarker. The link between α2MG and inflammation has already been shown (Kuribayashi et al., 2013)."}, "OA symptoms": {"system": "OA symptoms", "conditions": "cited from earlier work"}, "RA": {"system": "RA", "conditions": "human, in vivo; cited from earlier work"}, "[2]": {"system": "rat model of OA (ACLT with tMx)", "test": "ACLT+tMx rat model of OA, intracycle dosing frequency of sprifermin (Example 6)", "assay_type": "in vivo, male Lister Hooded Rats", "protocol": "The goal of this study was to evaluate the effect of different intracycle dosing frequency of the same total dosage (3×1 μg) of sprifermin on cartilage volume in a rat model of OA. The anterior cruciate ligament transection (ACLT) with resection of the medial meniscus (tMx) was performed as disclosed in Example 1. Joints from male Lister Hooded Rats (200-260 g, Charles River) were used in this study. Animals were euthanized 18 weeks post-surgery.\nThe changes in the joint are related to clinical assessments in OA (cartilage loss, osteophytes, subchondral sclerosis). One μg sprifermin in saline was injected three times either weekly, every 2nd, every 3rd, every 4th or every 5th week and compared to appropriate vehicle groups. Body weight, joint diameters and clinical health scores were investigated weekly."}, "[3]": {"system": "medial meniscal tear in the right knee joint", "assay_type": "in vivo, Male Lewis rats", "protocol": "After the sacrifice, the right knee was removed and decalcified in 5% formic acid for 4-6 d before cutting in half in the frontal plane and embedding in paraffin wax. Three sections were cut in 200 μm steps, stained with toluidine blue, and analyzed using ImagePro Plus™ software (Media Cybernetics). In scoring the three sections of the joint, the worst-case scenario for the two halves on each slide was determined for the cartilage lesion as the cartilage degeneration width (μm). This reflects the areas of tibial cartilage lesion in which both chondrocyte and proteoglycan loss extend 50% of the cartilage thickness. The measurement was taken over the area of greatest lesion severity in each of the three zones across the tibial surface.\nA treatment group Mean±SE for each score and measurement was determined.\nData was analyzed using a one-way analysis of variance (1-way ANOVA) or Kruskal-Wallis test (non-parametric), along with an appropriate multiple comparison post-test. Right knee caliper measurements were compared to left using a Student's t-test. Unless indicated, Bolder BioPATH, Inc. performs statistical analysis on raw (untransformed) data only. […] Significance for all tests was set at p≦0.05. Comparisons were made between each group and the vehicle control group, as well as between pairs\nMale Lewis rats underwent surgery (under anesthesia with Isoflurane) to induce a medial meniscal tear in the right knee joint. Animals were dosed IA with vehicle or FGF-18 on one of two different regimens (see table below), then terminated on day 105. Knees had caliper measurements taken at baseline and days 21, 42, 56, 84, and 105. Serum was evaluated for α2 macroglobulin levels at baseline and on days 21, and 105, as well as one week after the final dose (day 42 or 84). Right knees were collected for histopathology evaluation."}, "[4]": {"system": "Primary articular porcine chondrocytes", "test": "Porcine chondrocyte proliferation with or without IL1α challenge (Example 4)", "assay_type": "cell-based, pig", "conditions": "100 ng/mL; for increase in the cell number versus control (medium, no IL1α): 8 days of culture; for stimulation of proliferation versus control (medium, IL1α 10 ng/mL): 8 days", "protocol": "Porcine chondrocytes were isolated from the cartilage of a femoral head of a pig hip (pigs were approximately one year old). After dissection of the joints, the cartilage was harvested and digested for 45 minutes with collagenase 0.25% ( 1/10 dilution of collagenase NBG4 2.5% in HAM's F12) at room temperature. The loosened cells were discarded and the cartilage further digested overnight with collagenase 0.1% ( 1/25 dilution of collagenase NBG4 2.5% in HAM's F12) at 37° C. to extract the chondrocytes. For this study, the chondrocytes were cultured in a monolayer.\nPrimary articular porcine chondrocytes were stimulated or not with 10 ng/mL IL1α and were either treated immediately or 6 hours later with anakinra 100 ng/mL and/or trFGF-18 100 ng/mL. Each condition was performed in 4 or 6-plicate. As a control, cells were also cultured with anakinra alone, trFGF-18 alone or in the absence of any treatment (medium).\nPre-culture: After cell isolation porcine chondrocytes were inoculated at 20,000 cells/cm^2 and cultivated for one week in complete HAM's F12. Cells were then harvested with accutase, counted and used as described below.\nFor cells treated directly with anakinra: Chondrocytes were inoculated in a 24-well plate at 15,000 cells/well in 0.5 mL of complete HAM's F12. Then 0.25 mL of trFGF-18 400 ng/mL and/or 0.25 mL of anakinra 400 ng/mL were added to the cells. In the challenged samples, 10 μL of IL1α at 1,000 ng/mL were also added to the cells. trFGF-18, anakinra and IL1α were all diluted in complete HAM's F12. The final volume in the culture well was adjusted to 1 mL with complete HAM's F12. Final concentrations were 10 ng/mL IL1α, 100 ng/mL trFGF-18 and 100 ng/mL anakinra and the total culture time was eight days. A complete medium change was performed after four days. N=4.\nFor cells treated with anakinra and trFGF-18 6 hours after the IL1α challenge: Chondrocytes were inoculated in a 24-well plate at 15,000 cells/well in 1 mL of complete HAM's F12 containing or not containing IL1α 10 ng/mL. After 6 hours the medium was removed and replaced with 0.25 mL trFGF-18 400 ng/mL and/or 0.25 mL of anakinra 400 ng/mL. In the challenged samples, 0.25 mL of IL1α at 40 ng/mL was also added to the cells. trFGF-18, anakinra and IL1α were all diluted in complete HAM's F12. The final volume in the culture well was adjusted to 1 mL with complete HAM's F12. Final concentrations were 10 ng/mL IL1α, 100 ng/mL trFGF-18 and 100 ng/mL anakinra and the total culture time was eight days. A complete medium change was performed after four days. N=6.\nAfter eight days of culture, cells were harvested with accutase and resulting cell suspensions were analyzed for cell concentration and cell viability with a ViCell™ cell analyzer (from Beckman Coulter). […]"}, "[5]": {"system": "ACLT+tMx model of instability-induced OA", "test": "ACLT+tMx model of instability-induced OA, cartilage matrix deposition by Safranin-O (Example 1)", "assay_type": "in vivo, male Lewis rats", "protocol": "The anterior cruciate ligament transection with resection of the medial meniscus (ACLT+tMx) model of instability-induced OA was performed in male Lewis rats 10-15 weeks of age. Briefly, under anesthesia with Isoflurane, the joint capsule of the right knee of each rat was opened, the anterior cruciate and the meniscus fixating ligaments were sharply transected, the meniscus was removed and the capsule, muscles and skin closed by sutures. Animals were randomly allocated into 10 groups of n=10 each. The following dosages were investigated: 0, 0.3, 1, 3 and 10 μg per intra-articular injection. Groups 1-5 received one cycle of three single injections at weekly intervals, group 6-10 three single injections at monthly intervals. Intra-articular treatment was started three weeks post-surgery. At this time pathophysiological changes are already mainifest, e.g., cartilage matrix loss. Animals were euthanized 17 weeks after surgery and joints were investigated."}, "[6]": {"system": "full-thickness defect in the articular cartilage of the trochlear groove", "assay_type": "in vivo, New Zealand White rabbits", "text": "60 adult male, naïve, New Zealand White rabbits were used for this study. Animals were approximately 3-4 months of age. Rabbits underwent surgery for creation of the cartilage defect right knee. A 2 mm by 6 mm full-thickness defect was made in the articular cartilage of the trochlear groove. The microfracture was created using 18 gauge needles. Two 3 mm deep microfractures were made through the subchondral bone at the base of the defect, one proximally and one distally. Each microfracture hole was approximately 1.5 mm in diameter and the holes separated by 2 mm. The experiment consisted of the following six treatment groups, with 10 animals in each group for a total of 60 rabbits (Table 2). Rabbits in Groups 3, 4, 5 and 6 were treated with intra-articular rhFGF-18 in either one cycle of three weekly injections of 100 μg of rhFGF-18 (Group 3 and 5) or one cycle of three monthly injections of 100 μg of rhFGF-18 (Group 4 and 6). All animals were euthanized and necropsied 6 months after surgery. [table]"}}, "note": "Entries after “also recorded” stand apart in the source; their conditions may differ. Read-outs that look alike come from different tables or passages of the source.", "data": [{"molecule": "O=C(O)Cc1ccccc1Nc1c(Cl)cccc1Cl", "note": "[diclofenac, 2-(2,6-dichloranilino) phenylacetic acid]", "values": [{"measurement": "knee caliper measurements", "setting": "[1]; diclofenac 1 mg/kg oral with FGF-18 i.a., any other time point", "value": "not significantly affected"}, {"measurement": "knee caliper measurements", "setting": "[1]; diclofenac 1 mg/kg oral with FGF-18 i.a., day 42", "value": "significantly reduced"}, {"measurement": "swelling scores versus vehicle controls", "setting": "[1]; diclofenac 1 mg/kg oral with FGF-18 i.a.", "value": "significantly reduced"}, {"measurement": "knee caliper measurements", "setting": "[1]; diclofenac 3 mg/kg oral with FGF-18 i.a., any other time point", "value": "not significantly affected"}, {"measurement": "knee caliper measurements", "setting": "[1]; diclofenac 3 mg/kg oral with FGF-18 i.a., day 42", "value": "significantly reduced"}, {"measurement": "swelling scores versus vehicle controls", "setting": "[1]; diclofenac 3 mg/kg oral with FGF-18 i.a.", "value": "significantly reduced"}, {"measurement": "serum α2MG levels, all groups", "setting": "[1]; diclofenac 1 and 3 mg/kg with FGF-18, day 63", "value": "similar"}, {"measurement": "time for which effects on knee swelling were evident after the final dose of diclofenac", "setting": "[1]; diclofenac 1 or 3 mg/kg with FGF-18", "value": "approximately one week"}]}, {"molecule": "anakinra: recombinant, nonglycosylated form of human interleukin-1 receptor antagonist (IL-1Ra), SEQ ID NO: 3", "values": [{"measurement": "pain versus placebo", "setting": "OA symptoms; anakinra 150 mg", "value": "tendency toward pain reduction"}, {"measurement": "improvements in OA symptoms compared with placebo", "setting": "OA symptoms; anakinra therapy", "value": "not significantly associated with improvements"}, {"measurement": "joint damage in RA patients", "setting": "RA", "value": "reduction in frequency and severity of joint damage"}, {"measurement": "pain in RA patients", "setting": "RA", "value": "pain reduction"}]}, {"molecule": "trFGF-18: recombinant truncated form of human FGF-18 (170 amino acids, SEQ ID NO: 2), produced in E. coli (protein, Recombinant truncated FGF-18(trFGF-18)) MEENVDFRIHVENQTRARDDVSRKQLRLYQLYSRTSGKHIQVLGRRISARGEDGDKYAQLLVETDTFGSQVRIKGKETEFYLCMNRKGKLVGKPDGTSKECVFIEKVLENNYTALMSAKYSGWYVGFTKKGRPRKGPKTRENQQDVHFMKRYPKGQPELQKPFKYTTVTK", "values": [{"measurement": "cartilage denudation, stereology", "setting": "[2]; 3 x 1 μg/joint, 18 weeks post-surgery", "value": "prevented more or less complete cartilage denudation"}, {"measurement": "cartilage volume on medial tibia", "setting": "[2]; One μg/joint once every 3rd week, three injections in total, listed as rhFGF-18", "value": "statistically significant difference over saline; also recorded: most beneficial structural outcome"}, {"measurement": "cartilage volume compared to placebo", "setting": "[2]; all groups treated (weekly to every 5th week)", "value": "higher cartilage volume values"}, {"measurement": "joint diameters", "setting": "[2]; between injections every 2nd, 3rd or 4th week", "value": "No significant differences"}, {"measurement": "AUC of joint diameters", "setting": "[2]; injected every 5th week", "value": "the same as with saline injections"}, {"measurement": "joint diameters (AUC of joint diameter difference)", "setting": "[2]; injections in week 3, 4 and 5 versus week 3, 8 and 13", "value": "significantly higher"}, {"measurement": "body weight gain", "setting": "[2]; intra-articular injections, 3 x 1 μg", "value": "no influence"}, {"measurement": "extent of injury over the tibial surface (collagen damage), histopathology", "setting": "[3]; 10 μg IA, day 105", "value": "generally increased"}, {"measurement": "severity of tibial injury, histopathology", "setting": "[3]; 10 μg IA, day 105", "value": "reducing its severity"}, {"measurement": "structural benefit (total joint score, substantial tibial cartilage degeneration width)", "setting": "[3]; monthly injection scheme versus other regimens, 10 μg IA", "value": "highest"}, {"measurement": "overall morphology", "setting": "[3]; three injections once monthly (Group 5; days 21, 49, 77)", "value": "best overall morphology"}, {"measurement": "increase in the cell number versus control (medium, no IL1α)", "setting": "[4]; first experiment (direct treatment, N=4)", "value": 11.25, "unit": "fold"}, {"measurement": "increase in the cell number versus control (medium, no IL1α)", "setting": "[4]; second experiment (6-hour delay, N=6)", "value": 7.75, "unit": "fold"}, {"measurement": "stimulation of proliferation versus control (medium, IL1α 10 ng/mL)", "setting": "[4]; first experiment (direct treatment)", "value": 2.38, "unit": "fold"}, {"measurement": "stimulation of proliferation versus control (medium, IL1α 10 ng/mL)", "setting": "[4]; second experiment (6-hour delay)", "value": 2.44, "unit": "fold"}, {"measurement": "dose at which neo-formation of cartilaginous tissue became significant", "setting": "[5]; lateral tibia, independently of the injection regime (three i.a. injections weekly or monthly), 17 weeks after surgery", "value": 1, "unit": "μg/joint"}, {"measurement": "dose at which neo-formation of cartilaginous tissue became significant", "setting": "[5]; medial tibia, one-monthly regimen, three i.a. injections", "value": 0.3, "unit": "μg/joint"}, {"measurement": "dose at which neo-formation of cartilaginous tissue became significant", "setting": "[5]; medial tibia, one-weekly regimen, three i.a. injections", "value": 1, "unit": "μg/joint"}, {"measurement": "animals with intercondylar groove filled with cartilage", "setting": "[6]; Group 4: no microfracture, monthly x3, nearly normal to slightly roughened or granular cartilage", "value": "6/9"}, {"measurement": "animals with intercondylar groove filled", "setting": "[6]; Group 6: microfracture, monthly x3, finely granular to granular cartilage", "value": "3/10"}, {"measurement": "animals with groove 50% filled to nearly completely filled", "setting": "[6]; Group 6: microfracture, monthly x3, granular to coarsely granular cartilage", "value": "7/10"}, {"measurement": "increase in defect fill percentages", "setting": "[6]; no microfracture, monthly for three months, significant", "value": 48, "unit": "%"}, {"measurement": "necropsy findings", "setting": "[6]; rabbit, in vivo", "value": "stimulation of osteophytes on the medial and lateral trochlear ridges"}]}]}
